The nature of the series: endo-type α-(1-4)L-fucosidase activity (HPLC of PA-labeled substrate). Type of series: biochemical, Fucus vesiculosus. The settings on record: endo-type α-(1-4)L-fucosidase activity after each purification step, Table 14. How it is done: The sulfated fucan oligosaccharide 1-(4) as described in Example 2 was used to establish a system for measuring an endo-type α-(1-4)L-fucosidase activity. First, the sulfated fucan oligosaccharide 1-(4) was fluorescently labeled at the reducing end with 2-aminopyridine according to the method as described in Example 2-(4). The endo-type α-(1-4)L-fucosidase activity was measured as follows.
Briefly, 75 μl of 100 mM sodium phosphate buffer (pH 7.0), 7.5 μl of a bovine serum albumin solution (2 mg/ml), 3.75 μl of 4 M sodium chloride, 50.25 μl of water, 6 μl of the sulfated fucan oligosaccharide 1-(4) fluorescently labeled at the reducing end with 2-aminopyridine (10 pmol/μl) and 7.5 μl of an endo-type α-(1-4)L-fucosidase solution were mixed together. After reacting at 30° C. for 3 hours, the reaction mixture was treated at 100° C. for 10 minutes and analyzed using HPLC. As controls, a reaction mixture obtained by a reaction in which the solvent for the endo-type α-(1-4)L-fucosidase was used in place of the enzyme solution and a reaction mixture obtained by a reaction in which water was used in place of the substrate were similarly analyzed. […]

Regarding Hydroxyapatite, the Specific activity was determined as 10.6 mU/mg and the Total activity came out at 219 mU.
